Laboratory results published in paper PMC2814540.

Biological target: Human EGFR JM-kinase construct (JM-A and JM-B, residues 645-998) (human)
Assay: static light scattering

“Human EGFR JM-kinase construct (JM-A and JM-B, residues 645-998) (domain or fragment)” showed a stoichiometry N of 2.
